From patent US20230272048A1

Assays:
Experiment in all cases: capture ELISA on Env of lysed AD8 pseudovirus, % of WT
[1] = biological target: AD8 Env D368A (HIV-1 AD8, clade B)
[2] = biological target: AD8 Env D279A (HIV-1 AD8, clade B)
[3] = biological target: AD8 Env E370A (HIV-1 AD8, clade B)
S364A (HIV-1) = biological target: S364A (HIV-1)
S365A (HIV-1) = biological target: S365A (HIV-1)
A329K (HIV-1) = biological target: A329K (HIV-1)
[4] = biological target: AD8 Env N332T (HIV-1 AD8, clade B)
[5] = biological target: AD8 Env G473A (HIV-1 AD8, clade B)
Q363A (HIV-1) = biological target: Q363A (HIV-1)
G472A (HIV-1) = biological target: G472A (HIV-1)
[6] = biological target: AD8 Env T455A (HIV-1 AD8, clade B)
N262A (HIV-1) = biological target: N262A (HIV-1)
K121A (HIV-1) = biological target: K121A (HIV-1)
[7] = biological target: AD8 Env G366A (HIV-1 AD8, clade B)
M373A (HIV-1) = biological target: M373A (HIV-1)
[8] = biological target: AD8 Env G367A (HIV-1 AD8, clade B)
P313A (HIV-1) = biological target: P313A (HIV-1)
P369A (HIV-1) = biological target: P369A (HIV-1)
E87A (HIV-1) = biological target: E87A (HIV-1)
N276A (HIV-1) = biological target: N276A (HIV-1)
N197A (HIV-1) = biological target: N197A (HIV-1)
R419A (HIV-1) = biological target: R419A (HIV-1)
D185A (HIV-1) = biological target: D185A (HIV-1)
M475A (HIV-1) = biological target: M475A (HIV-1)
K282A (HIV-1) = biological target: K282A (HIV-1)
[9] = biological target: AD8 Env I371A (HIV-1 AD8, clade B)
R476A (HIV-1) = biological target: R476A (HIV-1)
N283A (HIV-1) = biological target: N283A (HIV-1)
[10] = biological target: AD8 Env D457A (HIV-1 AD8, clade B)
L179A (HIV-1) = biological target: L179A (HIV-1)
[11] = biological target: AD8 Env D474A (HIV-1 AD8, clade B)
[12] = biological target: AD8 Env G471A (HIV-1 AD8, clade B)
[13] = biological target: AD8 Env V372A (HIV-1 AD8, clade B)

Substance	Env binding (%) at antibody EC50 [1] [%]	Env binding (%) at antibody EC50 [2] [%]	Env binding (%) at antibody EC50 [3] [%]	Env binding (%) at antibody EC50 (S364A (HIV-1)) [%]	Env binding (%) at antibody EC50 (S365A (HIV-1)) [%]	Env binding (%) at antibody EC50 (A329K (HIV-1)) [%]	Env binding (%) at antibody EC50 [4] [%]	Env binding (%) at antibody EC50 [5] [%]	Env binding (%) at antibody EC50 (Q363A (HIV-1)) [%]	Env binding (%) at antibody EC50 (G472A (HIV-1)) [%]	Env binding (%) at antibody EC50 [6] [%]	Env binding (%) at antibody EC50 (N262A (HIV-1)) [%]	Env binding (%) at antibody EC50 (K121A (HIV-1)) [%]	Env binding (%) at antibody EC50 [7] [%]	Env binding (%) at antibody EC50 (M373A (HIV-1)) [%]	Env binding (%) at antibody EC50 (P369A (HIV-1)) [%]	Env binding (%) at antibody EC50 (E87A (HIV-1)) [%]	Env binding (%) at antibody EC50 (N276A (HIV-1)) [%]	Env binding (%) at antibody EC50 (N197A (HIV-1)) [%]	Env binding (%) at antibody EC50 (R419A (HIV-1)) [%]	further results
b12 (antibody)	21	86	54	110	64	51	66	96	77	93	114	52	95	47	111	90	99	86	69	74	Env binding (%) at antibody EC50 [8]: 68%; Env binding (%) at antibody EC50 (P313A (HIV-1)): 95%; Env binding (%) at antibody EC50 (D185A (HIV-1)): 63%; Env binding (%) at antibody EC50 (M475A (HIV-1)): 103%; Env binding (%) at antibody EC50 (K282A (HIV-1)): 96%; Env binding (%) at antibody EC50 [9]: 73%; Env binding (%) at antibody EC50 (R476A (HIV-1)): 79%; Env binding (%) at antibody EC50 (N283A (HIV-1)): 98%; Env binding (%) at antibody EC50 [10]: 57%; Env binding (%) at antibody EC50 (L179A (HIV-1)): 41%; Env binding (%) at antibody EC50 [11]: 70%; Env binding (%) at antibody EC50 [12]: 88%
PGT121 (antibody)	79	103	74	82	96	53	8	80	72	78	92	75	84	80	90	74	73	97	65	82	Env binding (%) at antibody EC50 [13]: 83%; Env binding (%) at antibody EC50 (D185A (HIV-1)): 81%; Env binding (%) at antibody EC50 (M475A (HIV-1)): 84%; Env binding (%) at antibody EC50 (K282A (HIV-1)): 78%; Env binding (%) at antibody EC50 [9]: 80%; Env binding (%) at antibody EC50 (R476A (HIV-1)): 73%; Env binding (%) at antibody EC50 (N283A (HIV-1)): 75%; Env binding (%) at antibody EC50 [10]: 108%; Env binding (%) at antibody EC50 (L179A (HIV-1)): 87%; Env binding (%) at antibody EC50 [11]: 81%; Env binding (%) at antibody EC50 [12]: 75%
